T1: Human HPTP-η with C-terminal His10 tag (Human HPTP-η ECD) (human, UniProt Q12913 36-975)
T1 construct: Produced in HEK293 cells; it was not cut off; also called Human PTPη; human PTP-η
T1 sequence: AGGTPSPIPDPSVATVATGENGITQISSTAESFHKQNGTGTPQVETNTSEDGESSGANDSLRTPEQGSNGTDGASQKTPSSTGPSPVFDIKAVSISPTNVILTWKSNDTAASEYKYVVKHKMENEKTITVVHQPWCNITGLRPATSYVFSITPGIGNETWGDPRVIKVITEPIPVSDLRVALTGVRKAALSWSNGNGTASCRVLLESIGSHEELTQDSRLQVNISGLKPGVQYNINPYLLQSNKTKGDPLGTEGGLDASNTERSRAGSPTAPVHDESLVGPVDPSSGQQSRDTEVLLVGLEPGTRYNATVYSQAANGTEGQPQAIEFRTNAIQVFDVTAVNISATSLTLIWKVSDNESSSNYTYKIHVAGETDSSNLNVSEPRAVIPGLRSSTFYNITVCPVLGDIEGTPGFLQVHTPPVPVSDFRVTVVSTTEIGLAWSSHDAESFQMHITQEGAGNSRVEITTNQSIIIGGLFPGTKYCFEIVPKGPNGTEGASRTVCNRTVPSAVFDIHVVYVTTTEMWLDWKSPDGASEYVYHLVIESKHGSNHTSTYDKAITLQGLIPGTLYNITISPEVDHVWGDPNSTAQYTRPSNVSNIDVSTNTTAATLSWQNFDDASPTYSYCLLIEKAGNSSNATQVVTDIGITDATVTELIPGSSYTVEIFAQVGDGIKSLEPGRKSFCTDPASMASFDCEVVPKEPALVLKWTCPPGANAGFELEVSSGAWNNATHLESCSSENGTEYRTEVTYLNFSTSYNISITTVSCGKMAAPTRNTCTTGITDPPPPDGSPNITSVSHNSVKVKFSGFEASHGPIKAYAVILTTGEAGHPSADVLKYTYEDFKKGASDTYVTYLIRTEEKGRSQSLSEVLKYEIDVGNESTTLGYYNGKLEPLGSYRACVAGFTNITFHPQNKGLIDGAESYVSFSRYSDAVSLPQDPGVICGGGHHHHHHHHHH

T2: Human VE-PTP (HPTP-β) containing first eight FN3 repeats with C-terminal His6 tag (Human ½ VE-PTP ECD) (human, UniProt P23467 23-820)
T2 construct: Produced in HEK293 cells and purified by the His tag; it was not cut off; also called Human Beta ½ ECD
T2 sequence: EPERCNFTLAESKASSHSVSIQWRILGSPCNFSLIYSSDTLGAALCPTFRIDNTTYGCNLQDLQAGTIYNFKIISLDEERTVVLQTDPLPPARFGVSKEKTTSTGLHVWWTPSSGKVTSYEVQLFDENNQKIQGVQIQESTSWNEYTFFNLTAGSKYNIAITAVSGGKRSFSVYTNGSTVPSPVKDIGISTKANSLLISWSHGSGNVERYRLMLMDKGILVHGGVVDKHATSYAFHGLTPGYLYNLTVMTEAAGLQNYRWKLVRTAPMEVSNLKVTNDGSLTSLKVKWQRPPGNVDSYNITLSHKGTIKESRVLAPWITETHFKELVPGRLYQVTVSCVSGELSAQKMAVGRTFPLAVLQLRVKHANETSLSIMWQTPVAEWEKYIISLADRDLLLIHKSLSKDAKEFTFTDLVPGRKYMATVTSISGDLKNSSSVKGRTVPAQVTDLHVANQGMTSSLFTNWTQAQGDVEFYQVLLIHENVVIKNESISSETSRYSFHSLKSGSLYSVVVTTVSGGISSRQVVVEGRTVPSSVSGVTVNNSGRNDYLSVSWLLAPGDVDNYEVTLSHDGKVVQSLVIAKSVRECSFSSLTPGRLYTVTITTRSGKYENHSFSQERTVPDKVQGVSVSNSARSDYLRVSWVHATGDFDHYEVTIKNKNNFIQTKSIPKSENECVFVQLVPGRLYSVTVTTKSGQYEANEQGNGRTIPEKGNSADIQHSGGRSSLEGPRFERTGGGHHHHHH


Columns and labels:
[1] = molecular target: T1, Human HPTP-η with C-terminal His10 tag …; assay: ELISA, coated antigen
Description: (§1) HPTP-β, cyno PTP-β, and HPTP-η proteins were coated onto ELISA plates in coating buffer (pH 9.4). Each protein was prepared as a 1 μg/mL protein stock in 50 mM carbonate-bicarbonate. The coated proteins were aliquoted at a volume of 100 μL/well into sterile, clear, polystyrene, flat bottom 96-well plates. The plates were incubated overnight at 4° C. After overnight incubation, the plates were washed 3× with 200 μL/well of 1×PBS-T (PBS with 0.05% Tween 20). The immunizing protein was human VE-PTP (HPTP-β). The plates were then blocked with 200 μL/well of 5% blotting grade blocker non-fat dry milk in PBS-T and incubated for 1 hr at room temperature.
(§2) Primary antibody samples were prepared for the humanized variants and the negative control, anti-hCD20-hIgG4S228P, using 1 μg/well in 5% blotting grade blocker non-fat dry milk in PBS. Samples were tested in triplicates. The Fab antibody fragments were treated as the IgG antibodies. The plates were then washed 3× with PBS-T and 100 μL of primary antibody preparation was added in each well. The plates were then incubated for 1 hr at room temperature.
(§3) Then, […] Ultra TMB-ELISA was added in each well, and the plate was allowed to develop for 5 min at room temperature. After 5 min, 50 μL of 2 M sulfuric acid was added to each well to stop the reaction. The plates were then analyzed on a plate reader at an absorbance wavelength of 450 nm.

[2] = molecular target: T2, Human VE-PTP (HPTP-β) containing first …; assay: ELISA, antigen coated at 1 µg/mL, antibody 1 µg/well
Description: as §1, §2, §3

Binder	binding result [1]	ELISA value (absorbance at 450 nm) [2]
humanized R15E6 variant HC2LC1 (antibody, human IgG4 S228P, kappa, V domains shown, Human IgG4 (S228P) / kappa, expressed in CHO cells; Signal peptides left out by range; also called VH2-VL1) VH: EVQLVESGGGLVQPGGSLRLSCAASGFTFNANAMNWVRQAPGKGLEWVGRIRTKSNNYATYYAGSVKDRFTISRDDSKNSLYLQMNSLKTEDTAVYYCVRDYYGSSAWITYWGQGTLVTVSS VL: DVVMTQSPSFLSASVGDRVTITCKASQHVGTAVAWYQQRPGKAPKLLIYWASTRHTGVPSRFSGSGSGTEFTLTISSLQPEDFATYFCQQYSSYPFTFGGGTKLEIKR	no binding (tested: <=0.2; 1 µg/well)	1.81
humanized R15E6 variant HC2LC3 (antibody, human IgG4 S228P, kappa, V domains shown, Human IgG4 (S228P) / kappa, expressed in CHO cells; Signal peptides left out by range; also called VH2-VL3) VH: EVQLVESGGGLVQPGGSLRLSCAASGFTFNANAMNWVRQAPGKGLEWVGRIRTKSNNYATYYAGSVKDRFTISRDDSKNSLYLQMNSLKTEDTAVYYCVRDYYGSSAWITYWGQGTLVTVSS VL: DIQMTQSPFSLSASVGDRVTITCKASQHVGTAVAWYQQKPGKAPKLLIYWASTRHTGVPSRFSGSGSGTDFTLTISSLQPEDFATYFCQQYSSYPFTFGGGTKLEIKR	no binding (tested: <=0.2; 1 µg/well)	1.55
humanized R15E6 variant HC2LC2 (antibody, human IgG4 S228P, kappa, V domains shown, Human IgG4 (S228P) / kappa, expressed in CHO cells; Signal peptides left out by range; also called VH2-VL2) VH: EVQLVESGGGLVQPGGSLRLSCAASGFTFNANAMNWVRQAPGKGLEWVGRIRTKSNNYATYYAGSVKDRFTISRDDSKNSLYLQMNSLKTEDTAVYYCVRDYYGSSAWITYWGQGTLVTVSS VL: DIVMTQSPDSLAVSLGERATINCKASQHVGTAVAWYQQKPGQPPKLLIYWASTRHTGVPDRFSGSGSGTDFTLTISSLQAEDVAVYYCQQYSSYPFTFGQGTKLEIKR	no binding (tested: <=0.2; 1 µg/well)	1.92
humanized R15E6 variant HC1LC2 (antibody, human IgG4 S228P, kappa, V domains shown, Human IgG4 (S228P) / kappa, expressed in CHO cells; Signal peptides left out by range; also called VH1-VL2) VH: EVQLVESGGGLVQPGGSLKLSCAASGFTFNANAMNWVRQASGKGLEWVGRIRTKSNNYATYYAGSVKDRFTISRDDSKNTAYLQMNSLKTEDTAAYYCVRDYYGSSAWITYWGQGTLVTVSS VL: DIVMTQSPDSLAVSLGERATINCKASQHVGTAVAWYQQKPGQPPKLLIYWASTRHTGVPDRFSGSGSGTDFTLTISSLQAEDVAVYYCQQYSSYPFTFGQGTKLEIKR	no binding (tested: <=0.2; 1 µg/well)	1.75
humanized R15E6 variant HC1LC4 (antibody, human IgG4 S228P, kappa, V domains shown, Human IgG4 (S228P) / kappa, expressed in CHO cells; Signal peptides left out by range; also called VH1-VL4) VH: EVQLVESGGGLVQPGGSLKLSCAASGFTFNANAMNWVRQASGKGLEWVGRIRTKSNNYATYYAGSVKDRFTISRDDSKNTAYLQMNSLKTEDTAAYYCVRDYYGSSAWITYWGQGTLVTVSS VL: DIVMTQSPDSLAVSLGERATINCKASQHVGTAVAWYQQKPEQPPKLLIYWASTRHTGVPDRFSGSGSGTDFTLTISSLQAEDVAVYYCQQYSSYPFTFGGGTKVEIKR	no binding (tested: <=0.2; 1 µg/well)	1.74
humanized R15E6 variant HC2LC4 (antibody, human IgG4 S228P, kappa, V domains shown, Human IgG4 (S228P) / kappa, expressed in CHO cells; Signal peptides left out by range; also called VH2-VL4) VH: EVQLVESGGGLVQPGGSLRLSCAASGFTFNANAMNWVRQAPGKGLEWVGRIRTKSNNYATYYAGSVKDRFTISRDDSKNSLYLQMNSLKTEDTAVYYCVRDYYGSSAWITYWGQGTLVTVSS VL: DIVMTQSPDSLAVSLGERATINCKASQHVGTAVAWYQQKPEQPPKLLIYWASTRHTGVPDRFSGSGSGTDFTLTISSLQAEDVAVYYCQQYSSYPFTFGGGTKVEIKR	no binding (tested: <=0.2; 1 µg/well)	1.65
humanized R15E6 variant HC3LC4 (antibody, human IgG4 S228P, kappa, V domains shown, Human IgG4 (S228P) / kappa, expressed in CHO cells; Signal peptides left out by range; also called VH3-VL4) VH: EVQLVESGGGLVQPGRSLRLSCTASGFTFNANAMNWVRQAPGKGLEWVGRIRTKSNNYATYYAGSVKDRFTISRDDSKNIAYLQMNSLKTEDTAVYYCVRDYYGSSAWITYWGQGTLVTVSS VL: DIVMTQSPDSLAVSLGERATINCKASQHVGTAVAWYQQKPEQPPKLLIYWASTRHTGVPDRFSGSGSGTDFTLTISSLQAEDVAVYYCQQYSSYPFTFGGGTKVEIKR	no binding (tested: <=0.2; 1 µg/well)	2
mouse/human chimeric antibody HC0LC0 (antibody, human IgG4 S228P, kappa, V domains shown, Murine variable domains of R15E6 on human IgG4 (S228P) and kappa constant domains, expressed in CHO cells; also called VH0-VL0) VH: EVQLVETGGGLVQPKGSMKLSCAASGFTFNANAMNWIRQAPGKGLEWVARIRTKSNNYATYYAGSVKDRFTISRDDAQNMLYLQMNDLKTEDTAMYYCVRDYYGSSAWITYWGQGTLVTVSA VL: DIVMTQSHKFMSTSVGDRVSITCKASQHVGTAVAWYQQKPDQSPKQLIYWASTRHTGVPDRFTGSGSGTDFTLTISNVQSEDLADYFCQQYSSYPFTFGSGTKLEIKR	no binding (tested: <=0.2; 1 µg/well)	1.8
